Source: PMC11109279, “Heliorhodopsin-mediated light-modulation of ABC transporter” (Nature Communications, 2024)

Experiments:
[1] = target: T1, heterodimeric multidrug resistance ABC transporter OmrDE (Omithinimicrobium cerasi strain USBA17B2, UniProt A0A285VW85 1-577; A0A285VWG3 1-661); assay: cell-based or functional assay
T1 sequence (looked up) 1: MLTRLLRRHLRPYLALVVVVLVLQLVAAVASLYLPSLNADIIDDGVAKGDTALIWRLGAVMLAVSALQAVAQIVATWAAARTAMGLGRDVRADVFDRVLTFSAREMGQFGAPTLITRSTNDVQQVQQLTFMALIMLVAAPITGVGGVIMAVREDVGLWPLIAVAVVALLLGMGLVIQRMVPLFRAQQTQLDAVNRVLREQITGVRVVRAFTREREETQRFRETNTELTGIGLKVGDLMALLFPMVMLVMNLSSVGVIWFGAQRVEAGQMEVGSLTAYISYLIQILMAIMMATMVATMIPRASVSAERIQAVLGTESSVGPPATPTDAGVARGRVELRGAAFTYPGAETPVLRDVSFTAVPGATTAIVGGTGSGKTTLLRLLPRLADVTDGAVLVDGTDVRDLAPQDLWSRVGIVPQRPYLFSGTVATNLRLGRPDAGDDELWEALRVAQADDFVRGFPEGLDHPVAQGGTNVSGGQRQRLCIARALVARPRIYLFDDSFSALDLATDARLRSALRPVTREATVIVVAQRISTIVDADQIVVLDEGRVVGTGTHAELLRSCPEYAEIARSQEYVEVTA
T1 sequence (looked up) 2: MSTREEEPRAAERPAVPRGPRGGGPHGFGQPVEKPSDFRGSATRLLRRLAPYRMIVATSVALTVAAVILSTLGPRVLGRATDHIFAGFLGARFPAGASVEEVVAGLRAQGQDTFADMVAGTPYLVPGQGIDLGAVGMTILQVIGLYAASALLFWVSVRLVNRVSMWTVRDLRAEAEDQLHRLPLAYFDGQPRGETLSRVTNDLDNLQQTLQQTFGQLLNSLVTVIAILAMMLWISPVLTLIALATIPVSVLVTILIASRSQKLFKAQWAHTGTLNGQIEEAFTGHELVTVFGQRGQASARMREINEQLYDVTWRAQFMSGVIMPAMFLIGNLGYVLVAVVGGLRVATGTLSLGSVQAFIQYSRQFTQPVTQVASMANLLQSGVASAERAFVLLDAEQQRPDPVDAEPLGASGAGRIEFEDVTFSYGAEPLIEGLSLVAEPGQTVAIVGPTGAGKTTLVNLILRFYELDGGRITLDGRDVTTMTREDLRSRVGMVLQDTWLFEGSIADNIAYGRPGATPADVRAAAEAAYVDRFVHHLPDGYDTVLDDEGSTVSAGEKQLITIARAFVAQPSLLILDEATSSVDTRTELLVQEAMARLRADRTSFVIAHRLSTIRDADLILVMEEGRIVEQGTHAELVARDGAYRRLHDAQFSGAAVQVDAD

[2] = target: T2, NBD-truncated OmrDE (OmrD^tcE^tc) (Omithinimicrobium cerasi strain USBA17B2); assay: ITC; replicate #2
T2 chain 1: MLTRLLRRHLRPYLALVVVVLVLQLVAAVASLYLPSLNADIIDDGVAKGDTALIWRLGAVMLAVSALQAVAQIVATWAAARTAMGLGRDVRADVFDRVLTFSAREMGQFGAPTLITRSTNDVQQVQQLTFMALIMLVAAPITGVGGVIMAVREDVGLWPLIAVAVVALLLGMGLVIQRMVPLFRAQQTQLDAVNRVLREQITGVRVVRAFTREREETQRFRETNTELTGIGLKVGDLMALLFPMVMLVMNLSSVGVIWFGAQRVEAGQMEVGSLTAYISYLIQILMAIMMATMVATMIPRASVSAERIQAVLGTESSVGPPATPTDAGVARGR
T2 chain 2: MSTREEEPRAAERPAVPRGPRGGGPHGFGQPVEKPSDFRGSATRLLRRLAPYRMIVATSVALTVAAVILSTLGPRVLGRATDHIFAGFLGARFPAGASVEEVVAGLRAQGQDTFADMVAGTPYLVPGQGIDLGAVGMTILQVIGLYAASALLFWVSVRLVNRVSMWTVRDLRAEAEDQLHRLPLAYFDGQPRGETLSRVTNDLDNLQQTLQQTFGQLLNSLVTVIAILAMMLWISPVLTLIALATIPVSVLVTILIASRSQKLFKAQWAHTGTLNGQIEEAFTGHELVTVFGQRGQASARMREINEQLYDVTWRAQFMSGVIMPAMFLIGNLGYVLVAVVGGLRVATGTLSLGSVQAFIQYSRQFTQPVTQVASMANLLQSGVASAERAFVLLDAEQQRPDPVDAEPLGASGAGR

OmrE (OmrE-His) [3] = target: T3, OmrE (OmrE-His) (Omithinimicrobium cerasi strain USBA17B2, UniProt A0A285VWG3 1-661); assay: ITC; replicate #2
T3 chain: T1 sequence (looked up) 2

[4] = target: T4, heterodimeric multidrug resistance ABC transporter OmrDE (Omithinimicrobium cerasi strain USBA17B2, UniProt A0A285VW85 1-577; A0A285VWG3 1-661); assay: ITC; replicate #2
T4 chain 1: T1 sequence (looked up) 1
T4 chain 2: T1 sequence (looked up) 2

[5] = target: T5, NBD-truncated OmrDE (OmrD^tcE^tc) (Omithinimicrobium cerasi strain USBA17B2); assay: ITC; OcHeR injected into the Omr protein; 25 °C, 500 rpm; buffer SD; MicroCal ITC200; one site binding model (sequential binding site model for R233Q); perfect saturation was not achieved; conditions: both partners purified
T5 chain 1: T2 chain 1
T5 chain 2: T2 chain 2

OmrD (OmrD::his-tag) = target: T6, OmrD (OmrD::his-tag) (Omithinimicrobium cerasi strain USBA17B2, UniProt A0A285VW85 1-577); assay: as above; conditions: both partners purified
T6 construct: OmrD-His calculated as 62.86 kDa; also called pET21b-OmrD; source: E. coli C43 (DE3); purified (Ni2+-NTA agarose) for ITC; in DDM-solubilized membrane proteins for the His-tag pull-down
T6 sequence (looked up): T1 sequence (looked up) 1

OmrE (OmrE-His) [6] = target: T7, OmrE (OmrE-His) (Omithinimicrobium cerasi strain USBA17B2, UniProt A0A285VWG3 1-661); assay: as above; conditions: both partners purified
T7 construct: OmrE-His calculated as 72.09 kDa; source: E. coli C43 (DE3), purified (DDM-solubilized membrane fraction, Ni2+-NTA agarose)
T7 sequence (looked up): T1 sequence (looked up) 2

B1: Omithinimicrobium cerasi strain USBA17B2 heliorhodopsin (OcHeR) WT (natural protein, UniProt A0A285W045 1-266, looked up)
chain: MGSTGTGSTASTTRADESRYAGLRRYNVVAAVVHAAQAVAVVVLATDFTLPMTASYLAGPPGSPPGEAVTLWDVPIPLAIATFLALSALFHVIVASPPFFDRYRRGLAQGHNYFRWVEYSLSSSLMIVIIAQLVGISDVVALLGLFGVNASMILFGWLQEKYHQPGDGGWLPFVFGCLAGAVPWVGIVLYTIAPGSTSGAEPPGFVYGIIVSLFLFFNVFALVQWLQYRPVGRFRDYLLGERLYITLSLVAKSALAWQIFGGTLAT
modifications: retinal Schiff base linked to K252
notes: gene codon-optimized for E. coli and chemically synthesized; source: E. coli C43 (DE3), purified (DDM-solubilized membrane fraction, Ni2+-NTA agarose)
[1]
  DAPI translocation capacity of OmrDE co-expressed with OcHeR WT in IMVs at 15 min, presence of light against absence of light: 3 fold
  half-life (t1/2) of the G state (554 nm) of the OcHeR photocycle with OmrDE against OcHeR WT alone: 1.6 fold
  half-life (t1/2) of the O state (618 nm) of the OcHeR photocycle with OmrDE against OcHeR WT alone: 2.2 fold
[2]
  Kd: 29 µM
OmrE (OmrE-His) [3]
  Kd: 24 µM
[4]
  Kd: 122 µM
[5]
  dH: -35.5 kcal/mol
OmrD (OmrD::his-tag)
  Kd: 123 µM
OmrE (OmrE-His) [6]
  Kd: 35.3 µM
  dH: 35.5 kcal/mol
